Results on three molecules are retold here after patent publication US20230348630A1 (BEIJING MABWORKS BIOTECH, published 2023).

Substitutions are numbered along the chain they refer to. Numbers in names are those of the source. Like-named read-outs stand apart in the source and are kept apart here.

Test [1] has as its target T1, CD3D&E protein (Cat #: CT038-H2508H, Sino Biological) (human, UniProt P04234 22-105; P07766 23-126).
T1 construct: Bought complex of the delta and epsilon chains; also called CD3D&E complex; human CD3D&E complex
Briefly: ELISA, coated CD3D&E.

For test [2], the target named is T2, CD3 on Jurkat cells (UniProt P04234 22-171; P07766 23-207).
T2 construct: whole, on cells
T2 sequence (P04234 22-171, chain 1 of 2): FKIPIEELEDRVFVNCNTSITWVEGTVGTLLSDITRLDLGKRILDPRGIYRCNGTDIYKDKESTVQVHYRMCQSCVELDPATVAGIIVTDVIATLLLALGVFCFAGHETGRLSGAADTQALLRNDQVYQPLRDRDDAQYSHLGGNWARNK
T2 sequence (P07766 23-207, chain 2 of 2): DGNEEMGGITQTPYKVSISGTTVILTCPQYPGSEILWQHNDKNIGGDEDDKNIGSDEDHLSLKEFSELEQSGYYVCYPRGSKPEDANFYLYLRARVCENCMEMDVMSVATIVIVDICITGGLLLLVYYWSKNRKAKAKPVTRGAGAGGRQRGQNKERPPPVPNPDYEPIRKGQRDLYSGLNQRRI
Briefly: flow cytometry on Jurkat cells. Here is the method:
(§1) Jurkat cells were collected, centrifuged at 300 g for 5 min, and suspended in PBS. After another centrifugation, the cells were suspended in 2% FBS-PBS at the cell density of 3×10⁶/ml, and […] were plated onto a U-bottom plate. The plate was added with 50 μl serially diluted anti-CD3 antibodies of the disclosure in 2% FBS-PBS (4-fold dilution, starting at 20 μg/ml), and incubated at room temperature for 1 h. The plate was washed with 2% FBS-PBS for three times, added with 50 μl PE-labeled goat-anti-human IgG (H+L) (1: 500), and incubated at room temperature for 45 min. The plate was washed with 2% FBS-PBS again for three times, and added with 150 μl 2% FBS-PBS to suspend the cells. The plate was measured for cell fluorescence using a cytometry, and the data was processed with FlowJo and analyzed with GraphPad.

Test [3] addresses T3, CD3E protein (Cat #: 10977-H08S, Sino Biological) (UniProt P07766 23-126).
T3 construct: also called CD3ε
Briefly: SPR (BIAcore 8K), CD3E coupled to the chip, antibody as analyte. Here is the method: For the test regarding binding affinity to CD3E (Cat #: 10977-H08S, Sino Biological), the CD3E molecules were coupled to a CMS biosensor chip, where about 200 RU of the molecules bound to the chip. The anti-CD3 antibodies of the disclosure diluted with the HBS-EP buffer (Cat #: BR-1006-69, GE Life Sciences) at 120 μg/ml were respectively flowed through the chip. Chip regeneration was performed with pH1.5 Gly-HCl.

For test [4], the target named is T1, CD3D&E protein (Cat #: CT038-H2508H, …). The test can be described thus: SPR (BIAcore 8K), antibody captured by anti-human Fc, CD3D&E as analyte. As to the method: Briefly, the mouse anti-human Fc antibodies were coupled to a CM5 biosensor chip. The anti-CD3 antibodies of the disclosure in the HBS-EP buffer (Cat #: BR-1006-69, GE Life Sciences) at the concentration of 1 μg/ml was flowed through the chip, where about 100 RU of the antibodies were captured by the mouse anti-human Fc antibodies. Serially diluted CD3D&E molecules (Cat #: CT038-H2508H, Sino Biological) in the HBS-EP buffer (Cat #: BR-1006-69, GE Life Sciences) (2-fold dilution starting at 20 μg/ml) were respectively flowed through the chip. Chip regeneration was performed with 3 M MgCl₂.

The target is the same in test [5]. The test can be described thus: ELISA, coated CD3D&E. Here is the method: (§2) The purified bispecific antibodies were tested for their binding capability to recombinant human CD3 and human BCMA proteins by ELISA, following the protocols in Example 4 and Example 9.
The source holds these as a separate data set.

Test [6] addresses T4, BCMA-his protein (Cat #: BCA-H522y, ACRO) (human, UniProt Q02223 1-54).
T4 construct: Bought recombinant protein; the construct is most likely only a soluble part of it; also called BCMA protein; human BCMA
T4 sequence: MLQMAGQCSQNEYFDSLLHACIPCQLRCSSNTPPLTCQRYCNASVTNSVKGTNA
Briefly: ELISA, coated BCMA protein. Here is the method:
Briefly, an ELISA plate was coated with 100 μl 1 μg/ml BCMA protein (Cat #: BCA-H522y, ACRO) in PBS overnight at 4° C. Then, the plate was blocked with 250 μl PBST with 4% skimmed milk at room temperature for 1 h. […] The negative control well was added with PBST instead of the antibody. The plate was washed with PBST for three times, added with 100 μl HRP conjugated goat anti-human IgG (1:7000, Cat #: 31413, thermofisher), and incubated at room temperature for 1 h. The plate was washed again with PBST for four times, added with 100 μl freshly prepared TMB (Cat #: 555214, BD, USA), and left still for color development, which was terminated with 50 μl 10% H₂SO₄. The absorbance was read at 450 nm, and the data was processed and analyzed using GraphPad.
as §2

In test [7] the target is T2, CD3 on Jurkat cells. Briefly: flow cytometry on Jurkat cells. As to the method: as §1
Following the protocol of Example 11, the bispecific antibodies of the disclosure were tested for their binding capability to Jurkat cells.
The source holds these as a separate data set.

Test [8] concerns the target T1, CD3D&E protein (Cat #: CT038-H2508H, …). The test can be described thus: SPR (BIAcore 8K), protocol of Example 10. Here is the method:
Following the protocols in Example 5 and Example 10, the bispecific antibodies of the disclosure were tested for their binding affinity to CD3D&E and human BCMA.

For test [9], the target named is T5, human BCMA on HEK293A/human BCMA cells (human, UniProt Q02223 1-184).
T5 sequence: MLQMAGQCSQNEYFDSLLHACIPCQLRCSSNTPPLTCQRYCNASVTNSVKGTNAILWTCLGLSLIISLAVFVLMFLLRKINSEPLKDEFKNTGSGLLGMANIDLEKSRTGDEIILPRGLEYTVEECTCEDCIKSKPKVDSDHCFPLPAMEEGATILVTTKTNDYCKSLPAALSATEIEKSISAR
Briefly: flow cytometry on HEK293A/human BCMA cells. Here is the method: (§3) The anti-BCMA antibody's binding capability to cell surface BCMAs was tested by FACS. Briefly, HEK293A/human BCMA cells, HEK293A/monkey BCMA cells and HEK293A/mouse BCMA cells, as generated in Example 1, were collected, digested with trypsin, and subjected to centrifugation at 300 g for 5 min. The cells were suspended in PBS, and subjected to centrifugation again. The cells were re-suspended in PBS with 2% FBS at the cell density at 4×10⁶/ml, and 50 μl cells were seeded onto a U-bottom plate. […] The plate was washed with 2% FBS-PBS for three times, added with 50 μl PE-labeled goat-anti-human IgG (H+L) (1: 500), and incubated at room temperature for 45 min. The plate was washed with 2% FBS-PBS again for three times, and added with 150 μl 2% FBS-PBS to suspend the cells. The plate was measured for cell fluorescence using a cytometry, and the data was processed with FlowJo and analyzed with GraphPad.
(§4) Following the protocol of Example 6, the bispecific antibodies of the disclosure were tested for their binding capability to the HEK293A/human BCMA cells, HEK293A/monkey BCMA cells, and HEK293A/mouse BCMA cells as generated in Example 1.

Test [10] addresses monkey BCMA on HEK293A/monkey BCMA cells (monkey, UniProt Q02223 1-184 (human entry)). Briefly: flow cytometry on HEK293A/monkey BCMA cells. Here is the method: as §3, §4
Test [11] addresses T6, mouse BCMA on HEK293A/mouse BCMA cells (mouse, UniProt O88472 1-185).
T6 sequence: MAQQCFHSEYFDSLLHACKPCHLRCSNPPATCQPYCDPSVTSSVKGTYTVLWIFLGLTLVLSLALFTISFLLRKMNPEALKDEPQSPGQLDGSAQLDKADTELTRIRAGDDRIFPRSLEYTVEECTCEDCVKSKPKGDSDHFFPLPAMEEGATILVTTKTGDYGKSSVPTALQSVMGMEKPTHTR
Briefly: flow cytometry on HEK293A/mouse BCMA cells [continued) F]. Here is the method: as §3, §4

T1 sequence (P04234 22-105, form in doubt, chain 1 of 2): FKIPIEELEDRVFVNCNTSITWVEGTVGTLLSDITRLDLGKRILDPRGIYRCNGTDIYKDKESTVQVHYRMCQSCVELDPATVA
T1 sequence (P07766 23-126, form in doubt, chain 2 of 2): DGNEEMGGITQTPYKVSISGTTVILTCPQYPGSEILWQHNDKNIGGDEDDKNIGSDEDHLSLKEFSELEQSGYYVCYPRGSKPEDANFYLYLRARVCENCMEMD
T3 sequence (P07766 23-126 limits assumed, stated change not applied): as the sequence (P07766 23-126, form in doubt, chain 2 of 2) above
monkey BCMA on HEK293A/monkey BCMA cells, sequence (Q02223 other isoform, or with tags, fused parts or gaps): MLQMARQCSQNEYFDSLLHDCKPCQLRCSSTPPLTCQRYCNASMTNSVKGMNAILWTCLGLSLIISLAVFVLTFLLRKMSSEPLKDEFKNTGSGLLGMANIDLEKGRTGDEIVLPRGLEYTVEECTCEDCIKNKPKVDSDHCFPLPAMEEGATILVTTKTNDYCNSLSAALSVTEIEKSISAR

B1: anti-CD3D&E antibody D1E9, full-length human IgG1 (L234A/L235A/N297A)/kappa (antibody, V domains shown)
VH: EVQLVESGGGLVQPGRSLRLSCAASGFTFDDFAMHWVRQAPGKGLEWVSGITWNSGSVGYADSVKGRFTISRDNAKKSLYLQMNSLRAEDTALYYCAKDRSGYGHYYYGMDVWGQGTTVTVAS
VL: EIVMTQSPATLSVSPGERATLSCRASTSVSHNVAWYQQKPGQAPRLLIYGASTKVTGIPARFSGSGSGTEFTLTISSLQSEDFAVYYCQHYINWPLTFGGGTKVEIKR
Take B1: the concentration giving a half-maximal response (EC50) came to 0.0879 µg/mL in test [1] and 0.0837 µg/mL in test [2]. Also, the binding result in test [3] was “no binding (tested: 120 µg/ml)”. For the same molecule, the Kd in test [4] amounted to 120 nM.

B2: anti-CD3D&E antibody D12A4, full-length human IgG1 (L234A/L235A/N297A)/kappa (antibody, V domains shown)
VH: B1 VH with D30G, F32Y, T52S, S55H, S57H, V58I, R100N
VL: B1 VL with T27R, H31R, V33L, V55P, I92T, T97R
For the molecule B2, the concentration for a half-maximal effect (EC50) worked out at 0.0226 µg/mL in test [1] and 0.11 µg/mL in [2]. For the same molecule, the binding result in [3] is on record as “no binding (tested: 120 µg/ml)”. In [4], this molecule had a dissociation constant Kd of 357 nM.

B3: anti-CD3/BCMA bispecific antibody MBS305-L-KIH (bispecific antibody, human IgG1, kappa, L234A L235A, N297A)
heavy 1: QVQLVQSGAEVKKPGASVKVSCKASGYTFTNHIIHWVRQAPGQGLEWMGYINPYPGYHGYNDKFSGRATMTSDTSTSTVYMELSSLRSEDTAVYYCARDGYYRDQDVLDYWGQGTLVTVSSASTKGPSVFPLAPSSKSTSGGTAALGCLVKDYFPEPVTVSWNSGALTSGVHTFPAVLQSSGLYSLSSVVTVPSSSLGTQTYICNVNHKPSNTKVDKKVEPKSCDKTHTCPPCPAPEAAGGPSVFLFPPKPKDTLMISRTPEVTCVVVDVSHEDPEVKFNWYVDGVEVHNAKTKPREEQYASTYRVVSVLTVLHQDWLNGKEYKCKVSNKALPAPIEKTISKAKGQPREPQVYTLPPSREEMTKNQVSLSCAVKGFYPSDIAVEWESNGQPENNYKTTPPVLDSDGSFFLVSKLTVDKSRWQQGNVFSCSVMHEALHNHYTQKSLSLSPGK
light 1: not shown
heavy 2: QVQLVQSGAEVKKPGASVKVSCKASGYTFTNHIIHWVRQAPGQGLEWMGYINPYPGYHGYNDKFSGRATMTSDTSTSTVYMELSSLRSEDTAVYYCARDGYYRDQDVLDYWGQGTLVTVSSGGGGSGGGGSGGGGSGGGGSDIQMTQSPSSLSASVGDRVTITCKASQDISQYLNWYQQKPGKAPKLLIYYTSGLHPGVPSRFSGSGSGTDFTFTISSLEPEDEATYYCQQGYALPWTFGQGTKLTAKRGGGGSGGGGSGGGGSEVQLVESGGGLVQPGRSLRLSCAASGFTFGDYAMHWVRQAPGKGLEWVSGISWNHGHIGYADSVKGRFTISRDNAKKSLYLQMNSLRAEDTALYYCAKDNSGYGHYYYGMDVWGQGTTVTVASASTKGPSVFPLAPSSKSTSGGTAALGCLVKDYFPEPVTVSWNSGALTSGVHTFPAVLQSSGLYSLSSVVTVPSSSLGTQTYICNVNHKPSNTKVDKKVEPKSCDKTHTCPPCPAPEAAGGPSVFLFPPKPKDTLMISRTPEVTCVVVDVSHEDPEVKFNWYVDGVEVHNAKTKPREEQYASTYRVVSVLTVLHQDWLNGKEYKCKVSNKALPAPIEKTISKAKGQPREPQVYTLPPSREEMTKNQVSLWCLVKGFYPSDIAVEWESNGQPENNYKTTPPVLDSDGSFFLYSKLTVDKSRWQQGNVFSCSVMHEALHNHYTQKSLSLSPGK
light 2: not shown
For the molecule B3, the EC50 stood at 0.267 µg/mL in test [5]; 0.0196 µg/mL in test [6]; 0.00301 µg/mL in test [7]; 0.187 µg/mL in [9]; 0.289 µg/mL in [10]. The same molecule showed a Kd in test [8] of 675 nM. Besides, in test [11], the binding result is listed as “no binding (tested: about 30000 ng/ml (LOG10 about 4.5))”.
